# Tested on: Escherichia coli TOP10
# Test: shrunken log2 fold change of peptide-encoding DNA abundance (4.5 h post-induction vs induction); higher = less antimicrobial activity (less host growth inhibition)
# Settings: time post-induction: 4.5 h; library: site-saturation at positions 5, 18, 19, 20
# 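Also: peptides expressed intracellularly from a pBAD plasmid library in pooled LB shake-flask culture, induced with 0.3% L-arabinose, DNA abundance read by NGS, three biological replicates, DESeq2 with apeglm shrinkage.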
row,Sequence,shrunken log2 fold change
1,RRIRERPPRLPRPRPRPKSAPRP,0.116
2,RRIRCRPPRLPRPRPRPITRPRP,-0.429
3,RRIRQRPPRLPRPRPRPYCWPRP,-0.554
4,RRIRRRPPRLPRPRPRPTFTPRP,0.128
5,RRIRIRPPRLPRPRPRPGKKPRP,0.0847
6,RRIRYRPPRLPRPRPRPLCVPRP,-0.722
7,RRIRGRPPRLPRPRPRPYYRPRP,-0.0655
8,RRIRNRPPRLPRPRPRPYSQPRP,-0.0488
9,RRIRDRPPRLPRPRPRPHNCPRP,0.0686
10,RRIRRRPPRLPRPRPRPDVCPRP,-0.000628
11,RRIRHRPPRLPRPRPRPGKIPRP,-0.769
12,RRIRNRPPRLPRPRPRPLAPPRP,0.262
13,RRIRWRPPRLPRPRPRPNMLPRP,0.0876
14,RRIRDRPPRLPRPRPRPQQEPRP,0.00606
15,RRIRCRPPRLPRPRPRPFYDPRP,-0.826
16,RRIRYRPPRLPRPRPRPYVKPRP,-1.12
17,RRIRMRPPRLPRPRPRPRSTPRP,0.888
18,RRIRARPPRLPRPRPRPGMMPRP,0.207
19,RRIRTRPPRLPRPRPRPNNTPRP,-0.518
20,RRIRDRPPRLPRPRPRPQLMPRP,0.419
21,RRIRFRPPRLPRPRPRPIAPPRP,0.0659
22,RRIRTRPPRLPRPRPRPEYLPRP,-0.0156

row,Sequence,shrunken log2 fold change
1,RRIRRRPPRLPRPRPRPQWMPRP,0.139
2,RRIRERPPRLPRPRPRPVGQPRP,0.129
3,RRIRIRPPRLPRPRPRPLMVPRP,-0.942
4,RRIRMRPPRLPRPRPRPNWWPRP,-0.0136
5,RRIRDRPPRLPRPRPRPRWCPRP,0.33
6,RRIRLRPPRLPRPRPRPFMKPRP,-0.222
7,RRIRKRPPRLPRPRPRPAFEPRP,0.158
8,RRIRMRPPRLPRPRPRPTCPPRP,0.128
9,RRIRTRPPRLPRPRPRPTHGPRP,0.0213
10,RRIRRRPPRLPRPRPRPQGWPRP,0.294
11,RRIRLRPPRLPRPRPRPQCYPRP,-0.172
12,RRIRPRPPRLPRPRPRPQNTPRP,-0.407
13,RRIRERPPRLPRPRPRPYQYPRP,-0.0129
14,RRIRTRPPRLPRPRPRPFAQPRP,-0.178
15,RRIRHRPPRLPRPRPRPMTYPRP,-0.19
16,RRIRERPPRLPRPRPRPSIIPRP,-0.188
17,RRIRTRPPRLPRPRPRPRIEPRP,0.453
18,RRIRIRPPRLPRPRPRPKTIPRP,-0.25
19,RRIRDRPPRLPRPRPRPPDYPRP,-0.0704
20,RRIRYRPPRLPRPRPRPFWHPRP,-0.556
21,RRIRPRPPRLPRPRPRPEDLPRP,0.0558
22,RRIRHRPPRLPRPRPRPSPKPRP,-0.0976

row,Sequence,shrunken log2 fold change
1,RRIRIRPPRLPRPRPRPFLCPRP,-0.628
2,RRIRERPPRLPRPRPRPMFCPRP,-0.168
3,RRIRCRPPRLPRPRPRPPNHPRP,-0.104
4,RRIRCRPPRLPRPRPRPCCAPRP,0.242
5,RRIRMRPPRLPRPRPRPTVDPRP,0.00715
6,RRIRHRPPRLPRPRPRPKFWPRP,0.00227
7,RRIRMRPPRLPRPRPRPANGPRP,0.094
8,RRIRTRPPRLPRPRPRPVCTPRP,0.162
9,RRIRCRPPRLPRPRPRPMKWPRP,0.0655
10,RRIRGRPPRLPRPRPRPGGTPRP,1.09
11,RRIRYRPPRLPRPRPRPATHPRP,-0.318
12,RRIRRRPPRLPRPRPRPNMYPRP,-0.16
13,RRIRGRPPRLPRPRPRPAKHPRP,0.209
14,RRIRCRPPRLPRPRPRPERSPRP,0.0846
15,RRIRIRPPRLPRPRPRPVYEPRP,-0.12
16,RRIRIRPPRLPRPRPRPHQAPRP,-0.0342
17,RRIRLRPPRLPRPRPRPSVYPRP,-0.584
18,RRIRFRPPRLPRPRPRPIVYPRP,-0.181
19,RRIRIRPPRLPRPRPRPTFLPRP,-0.679
20,RRIRRRPPRLPRPRPRPNTMPRP,-0.262
21,RRIRRRPPRLPRPRPRPNEKPRP,-0.023
22,RRIRMRPPRLPRPRPRPSMDPRP,0.0865

row,Sequence,shrunken log2 fold change
1,RRIRMRPPRLPRPRPRPHMHPRP,0.00917
2,RRIRKRPPRLPRPRPRPMTNPRP,0.184
3,RRIRKRPPRLPRPRPRPVVQPRP,0.242
4,RRIRDRPPRLPRPRPRPHNYPRP,-0.423
5,RRIRWRPPRLPRPRPRPSCMPRP,0.11
6,RRIRYRPPRLPRPRPRPSRSPRP,0.134
7,RRIRKRPPRLPRPRPRPRDNPRP,0.15
8,RRIRARPPRLPRPRPRPEFQPRP,0.666
9,RRIRFRPPRLPRPRPRPYCSPRP,-0.206
10,RRIRCRPPRLPRPRPRPSPVPRP,0.00196
11,RRIRVRPPRLPRPRPRPKIKPRP,-0.303
12,RRIRNRPPRLPRPRPRPLSEPRP,0.0166
13,RRIRNRPPRLPRPRPRPYNFPRP,-0.176
14,RRIRPRPPRLPRPRPRPQSMPRP,-0.609
15,RRIRWRPPRLPRPRPRPKDGPRP,0.00598
16,RRIRDRPPRLPRPRPRPVREPRP,0.929
17,RRIRVRPPRLPRPRPRPNLCPRP,-0.292
18,RRIRNRPPRLPRPRPRPLIGPRP,-0.0791
19,RRIRGRPPRLPRPRPRPCSDPRP,0.0118
20,RRIRKRPPRLPRPRPRPYIHPRP,-0.227
21,RRIRGRPPRLPRPRPRPRHYPRP,0.173
22,RRIRSRPPRLPRPRPRPDTEPRP,-0.0911

row,Sequence,shrunken log2 fold change
1,RRIRHRPPRLPRPRPRPAKSPRP,0.076
2,RRIRFRPPRLPRPRPRPGYWPRP,0.0724
3,RRIRIRPPRLPRPRPRPGPIPRP,-0.329
4,RRIRCRPPRLPRPRPRPFKQPRP,-0.0402
5,RRIRQRPPRLPRPRPRPTMTPRP,-0.0845
6,RRIRWRPPRLPRPRPRPFVMPRP,-1.01
7,RRIRMRPPRLPRPRPRPIRDPRP,-0.261
8,RRIRYRPPRLPRPRPRPLGWPRP,0.0401
9,RRIRIRPPRLPRPRPRPWVGPRP,-0.248
10,RRIRVRPPRLPRPRPRPIRDPRP,0.0875
11,RRIRYRPPRLPRPRPRPITAPRP,-0.00947
12,RRIRWRPPRLPRPRPRPEDHPRP,0.304
13,RRIRCRPPRLPRPRPRPDAQPRP,0.456
14,RRIRHRPPRLPRPRPRPCFRPRP,-0.346
15,RRIRFRPPRLPRPRPRPHWIPRP,-0.151
16,RRIRKRPPRLPRPRPRPIEHPRP,0.332
17,RRIRERPPRLPRPRPRPEDRPRP,-0.0523
18,RRIRRRPPRLPRPRPRPKNGPRP,0.259
19,RRIRERPPRLPRPRPRPEMGPRP,-0.116
20,RRIRCRPPRLPRPRPRPYKYPRP,-0.551
21,RRIRRRPPRLPRPRPRPMVCPRP,0.0487

# From the supplement of paper PMC9112550, “Optimization of the antimicrobial peptide Bac7 by deep mutational scanning” (BMC Biology, 2022)
